B3: MEKK2-mCherry (natural protein, Arabidopsis thaliana (Col-0 cDNA), UniProt O81472 1-773, looked up)
chain: MKKSSDKSPVRQHDTATQINSDAVSSSTSFTDSDSTCSFLTPSMEFPDRISFRRIDFSEAAPTGVVLPSTSSELTRSNSSENKIPNEDISVSTSSRYLVFDKILALMKKSPGRRGDKTSPARRLDRSDAVRRNIDYDAGEDSSSLLITRSLDFPNRTSFRVDGVDDGEIDRIYQYIGVSGPEDFAISSDAWKARMEHERSSSDVVNKLKSLDLDSREAGPSGGVVASSSMNHKFQGHDLSEAGSIGVVVASNFTLSESNKIENLNSLRDKEIVDGDMVENRCGIERKPTILVKSRGYLVHNDDVGVGGGIKGVRPPVLNVPRADKEVVDGGTVESKSGIEWKPTILVKSKGYLVSNDGGIKGVTSPVLNLRPTDKEVVDSGTVENRRGIKGVRPSVLKPPPVMKLPPVDLPGSSWDILTHFAPDSEIVRRPSSSSSSENGCDEEEAEDDKVEKEETGDMFIQLEDTTDEACSFTTNEGDSSSTVSNTSPICVSGGSINTSWQKGQLLRQGSFGSVYEAISEDGDFFAVKEVSLLDQGSQAQECIQQLEGEIALLSQLEHQNILRYRGTDKDGSNLYIFLELVTQGSLLELYRRYQIRDSLISLYTKQILDGLKYLHHKGFIHRDIKCATILVDANGTVKLADFGLAKVSKLNDIKSRKETLFWMAPEVINRKDNDGYRSPADIWSLGCTVLEMCTGQIPYSDLEPVEALFRIRRGTLPEVPDTLSLDARHFILKCLKLNPEERPTATELLNHPFVRRPLPSSGSGSTSPLIRR

Columns and labels:
Assay in all cases: FRET or BRET
[1] = target: T1, BIR2-mCherry (UniProt Q9LSI9 29-605)
T1 sequence (looked up): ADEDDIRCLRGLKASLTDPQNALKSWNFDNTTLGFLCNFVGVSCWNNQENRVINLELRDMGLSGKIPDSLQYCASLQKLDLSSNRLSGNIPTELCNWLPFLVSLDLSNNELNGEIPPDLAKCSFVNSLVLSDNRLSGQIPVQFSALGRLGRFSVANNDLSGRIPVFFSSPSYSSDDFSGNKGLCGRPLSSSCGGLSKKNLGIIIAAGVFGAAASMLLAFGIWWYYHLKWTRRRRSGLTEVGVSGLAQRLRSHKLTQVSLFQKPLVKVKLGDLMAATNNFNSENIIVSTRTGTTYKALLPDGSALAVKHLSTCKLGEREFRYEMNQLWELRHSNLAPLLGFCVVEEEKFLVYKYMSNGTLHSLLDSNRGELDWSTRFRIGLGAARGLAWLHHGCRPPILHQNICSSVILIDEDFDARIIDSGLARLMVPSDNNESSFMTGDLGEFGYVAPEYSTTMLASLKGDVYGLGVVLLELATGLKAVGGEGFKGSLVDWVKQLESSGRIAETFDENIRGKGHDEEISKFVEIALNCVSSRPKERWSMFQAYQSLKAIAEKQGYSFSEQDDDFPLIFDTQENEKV

[2] = target: B3
[3] = target: T2, SUMM2-GFP (Arabidopsis thaliana (Col-0 cDNA), UniProt P60838 1-894)
T2 sequence (looked up): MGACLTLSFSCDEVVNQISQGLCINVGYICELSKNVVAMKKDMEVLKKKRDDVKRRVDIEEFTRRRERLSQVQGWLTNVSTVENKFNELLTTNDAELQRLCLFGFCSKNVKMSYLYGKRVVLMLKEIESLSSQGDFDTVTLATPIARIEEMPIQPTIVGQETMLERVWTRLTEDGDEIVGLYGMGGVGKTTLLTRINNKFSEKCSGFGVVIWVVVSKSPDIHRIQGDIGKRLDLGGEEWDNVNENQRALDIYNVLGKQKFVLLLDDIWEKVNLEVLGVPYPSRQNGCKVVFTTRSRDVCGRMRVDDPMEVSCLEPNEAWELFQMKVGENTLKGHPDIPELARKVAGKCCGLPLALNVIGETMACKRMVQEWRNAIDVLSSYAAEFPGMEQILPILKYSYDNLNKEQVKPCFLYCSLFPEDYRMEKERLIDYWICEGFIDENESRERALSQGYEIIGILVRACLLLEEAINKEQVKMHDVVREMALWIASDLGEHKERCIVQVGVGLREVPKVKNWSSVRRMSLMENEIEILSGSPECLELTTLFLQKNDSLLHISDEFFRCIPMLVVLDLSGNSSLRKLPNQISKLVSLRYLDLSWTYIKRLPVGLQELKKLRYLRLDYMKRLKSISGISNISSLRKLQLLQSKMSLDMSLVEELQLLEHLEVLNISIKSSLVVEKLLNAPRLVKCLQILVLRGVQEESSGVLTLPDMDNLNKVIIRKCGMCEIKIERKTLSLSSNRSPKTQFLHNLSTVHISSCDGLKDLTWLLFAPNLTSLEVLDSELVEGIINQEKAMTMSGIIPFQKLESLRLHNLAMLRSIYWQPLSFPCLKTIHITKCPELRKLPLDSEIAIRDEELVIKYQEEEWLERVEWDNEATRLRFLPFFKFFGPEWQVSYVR

B1: BAK1-GFP (receptor, Arabidopsis, UniProt Q94F62 26-615, looked up)
chain: NAEGDALSALKNSLADPNKVLQSWDATLVTPCTWFHVTCNSDNSVTRVDLGNANLSGQLVMQLGQLPNLQYLELYSNNITGTIPEQLGNLTELVSLDLYLNNLSGPIPSTLGRLKKLRFLRLNNNSLSGEIPRSLTAVLTLQVLDLSNNPLTGDIPVNGSFSLFTPISFANTKLTPLPASPPPPISPTPPSPAGSNRITGAIAGGVAAGAALLFAVPAIALAWWRRKKPQDHFFDVPAEEDPEVHLGQLKRFSLRELQVASDNFSNKNILGRGGFGKVYKGRLADGTLVAVKRLKEERTQGGELQFQTEVEMISMAVHRNLLRLRGFCMTPTERLLVYPYMANGSVASCLRERPESQPPLDWPKRQRIALGSARGLAYLHDHCDPKIIHRDVKAANILLDEEFEAVVGDFGLAKLMDYKDTHVTTAVRGTIGHIAPEYLSTGKSSEKTDVFGYGVMLLELITGQRAFDLARLANDDDVMLLDWVKGLLKEKKLEALVDVDLQGNYKDEEVEQLIQVALLCTQSSPMERPKMSEVVRMLEGDGLAERWEEWQKEEMFRQDFNYPTHHPAVSGWIIGDSTSQIENEYPSGPR
FRET efficiency [1]: 13.5%

B2: LET1-GFP (receptor, Arabidopsis thaliana (Col-0 cDNA), UniProt O22187 29-834, looked up)
chain: DTSTYTRPENFYVNCGSDSNVFYGGQTFVGDTNSSTNSVSFTNKGTEVINDQSSVAPEIYRTVRIFRHPSSYKFKLDSLGLHFVRLHFSVVFSRADLLTARFTVSATSGSNHHLKSFSPQNLTNTPRVEEFLLMMNSLEFEIRFVPDHSSLALINAIEVFSAPDDLEIPSASDKNLHTIYRLNVGGEKITPDNDTLGRTWLPDDDDFLYRKDSARNINSTQTPNYVGGLSSATDSTAPDFVYKTAKAMNRSSNEQVGMLMNVTWSFKVKSNHRHFIRIHFSDILSNLSNSDSDFYLFVNGYWRVDVKPSEQPRLASPFFKDVVNVSDGSGLLNISIGTKEANKDAGFLNGLEMMEVLSKSGSDYSNRSSSRVHIITGCAVAAAAASALVFSLLFMVFLKRRRSKKTKPEVEGTVWSPLPLHRGGSSDNRPISQYHNSPLRNLHLGLTIPFTDILSATNNFDEQLLIGKGGFGYVYKAILPDGTKAAIKRGKTGSGQGILEFQTEIQVLSRIRHRHLVSLTGYCEENSEMILVYEFMEKGTLKEHLYGSNLPSLTWKQRLEICIGAARGLDYLHSSGSEGAIIHRDVKSTNILLDEHNIAKVADFGLSKIHNQDESNISINIKGTFGYLDPEYLQTHKLTEKSDVYAFGVVLLEVLFARPAIDPYLPHEEVNLSEWVMFCKSKGTIDEILDPSLIGQIETNSLKKFMEIAEKCLKEYGDERPSMRDVIWDLEYVLQLQMMTNRREAHEEDSTAINSGGSLVAPRLMVSDSFSTNSIFQNGDESKNRFGFTDSSETRVFSQLKISDAR
FRET efficiency [2]: 13.1 ± 1.76%

B3
FRET efficiency [3]: 7.99 ± 0.19%

Source: PMC7492416 (Nature plants, 2020)
